This is an account of results in publication doi:10.1101/2021.08.20.457142.

To fix the notation:
B1: MKK7 D-site peptide (second D-site) / JNK1 alpha1 (MAPK8 isoform 1) L198A, full length (parent complex)
chain 1: SQPQRPRPTLQLPLANEAFEQP
chain 2: MSRSKRDNNFYSVEIGDSTFTVLKRYQNLKPIGSGAQGIVCAAYDAILERNVAIKKLSRPFQNQTHAKRAYRELVLMKCVNHKNIIGLLNVFTPQKSLEEFQDVYIVMELMDANLCQVIQMELDHERMSYLLYQMLCGIKHLHSAGIIHRDLKPSNIVVKSDCTLKILDFGLARTAGTSFMMTPYVVTRYYRAPEVIAGMGYKENVDLWSVGCIMGEMVCHKILFPGRDYIDQWNKVIEQLGTPCPEFMKKLQPTVRTYVENRPKYAGYSFEKLFPDVLFPADSEHNKLKASQARDLLSKMLVIDASKRISVDEALQHPYINVWYDPSEAEAPPPKIPDKQLDEREHTIEEWKELIYKEVMDLEERTKNGVIRGQPSPLAQVQQ

The variants in this experiment derive from B1.
Consider chain 1 P8A, chain 1 P13A, for which the screen value was 0.299 Z-score of the enrichment rate within one screen of 711 sequences.

Consider chain 1 Q4A, chain 1 P13A, for which the screen value was 1.2 Z-score of the enrichment rate within one screen of 711 sequences.

On to chain 1 P8A, chain 1 T9A, for which the screen value is 0.477 Z-score of the enrichment rate within one screen of 711 sequences.

Take chain 1 P8A, chain 1 Q11A: the screen value is 0.343 Z-score of the enrichment rate within one screen of 711 sequences.

Consider chain 1 P3F, for which the screen value was 1.46 Z-score of the enrichment rate within one screen of 711 sequences.

Turning to chain 1 P3N, the screen value was 1.46 Z-score of the enrichment rate within one screen of 711 sequences.

Take chain 1 P3D: the screen value was 1.22 Z-score of the enrichment rate within one screen of 711 sequences.

Regarding chain 1 P3M, the screen value is 1.81 Z-score of the enrichment rate within one screen of 711 sequences.

Consider chain 1 P3V, for which the screen value is 1.59 Z-score of the enrichment rate within one screen of 711 sequences.

Consider chain 1 P3I, for which the screen value is 1.41 Z-score of the enrichment rate within one screen of 711 sequences.

For chain 1 R5A, chain 1 Q11A, the screen value was 0.344 Z-score of the enrichment rate within one screen of 711 sequences.

For the variant chain 1 R5A, chain 1 P6A, the screen value was 0.351 Z-score of the enrichment rate within one screen of 711 sequences.

For chain 1 P8A, chain 1 L14A, the screen value was -0.643 Z-score of the enrichment rate within one screen of 711 sequences.

As to chain 1 P3A, chain 1 P8A, the screen value was 0.357 Z-score of the enrichment rate within one screen of 711 sequences.

chain 1 Q4Y: the screen value is 1.67 Z-score of the enrichment rate within one screen of 711 sequences.

For the variant chain 1 Q4P, the screen value was 1.26 Z-score of the enrichment rate within one screen of 711 sequences.

For the variant chain 1 Q4I, the screen value was 1.36 Z-score of the enrichment rate within one screen of 711 sequences.

Consider chain 1 Q4L, for which the screen value is 1.47 Z-score of the enrichment rate within one screen of 711 sequences.

Consider chain 1 Q4F, for which the screen value was 1.4 Z-score of the enrichment rate within one screen of 711 sequences.

Take chain 1 T9A, chain 1 L12A: the screen value was -0.742 Z-score of the enrichment rate within one screen of 711 sequences.

On to chain 1 P13C, for which the screen value was 1.25 Z-score of the enrichment rate within one screen of 711 sequences.

As for chain 1 P13N, the screen value was 1.87 Z-score of the enrichment rate within one screen of 711 sequences.

Consider chain 1 P13H, for which the screen value is 1.44 Z-score of the enrichment rate within one screen of 711 sequences.

For the variant chain 1 P13Q, the screen value is 1.52 Z-score of the enrichment rate within one screen of 711 sequences.

Turning to chain 1 P13S, the screen value is 1.22 Z-score of the enrichment rate within one screen of 711 sequences.

In the case of chain 1 P13D, the screen value was 1.95 Z-score of the enrichment rate within one screen of 711 sequences.

With chain 1 P13V, the screen value was 1.22 Z-score of the enrichment rate within one screen of 711 sequences.

For the variant chain 1 P13L, the screen value was 1.38 Z-score of the enrichment rate within one screen of 711 sequences.

With chain 1 R5A, chain 1 L10A, the screen value is -0.687 Z-score of the enrichment rate within one screen of 711 sequences.

For chain 1 R5A, chain 1 P13A, the screen value was 0.748 Z-score of the enrichment rate within one screen of 711 sequences.

On to chain 1 L10A, chain 1 P13A, for which the screen value was -0.374 Z-score of the enrichment rate within one screen of 711 sequences.

As to chain 1 R5A, chain 1 T9A, the screen value was 0.257 Z-score of the enrichment rate within one screen of 711 sequences.

chain 1 R5A: the screen value was 0.263 Z-score of the enrichment rate within one screen of 711 sequences.

As to chain 1 R5E, the screen value is 0.07 Z-score of the enrichment rate within one screen of 711 sequences.

Turning to chain 1 R5I, the screen value is 0.772 Z-score of the enrichment rate within one screen of 711 sequences.

With chain 1 R5V, the screen value was 0.568 Z-score of the enrichment rate within one screen of 711 sequences.

In the case of chain 1 R5D, the screen value was -0.21 Z-score of the enrichment rate within one screen of 711 sequences.

chain 1 R5P: the screen value is 0.594 Z-score of the enrichment rate within one screen of 711 sequences.

Consider chain 1 R5W, for which the screen value was 0.845 Z-score of the enrichment rate within one screen of 711 sequences.

Regarding chain 1 A15V, the screen value is 1.42 Z-score of the enrichment rate within one screen of 711 sequences.

In the case of chain 1 A15K, the screen value is 1.73 Z-score of the enrichment rate within one screen of 711 sequences.

In the case of chain 1 A15T, the screen value was 1.58 Z-score of the enrichment rate within one screen of 711 sequences.

chain 1 A15S: the screen value was 1.46 Z-score of the enrichment rate within one screen of 711 sequences.

Turning to chain 1 A15I, the screen value was 0.806 Z-score of the enrichment rate within one screen of 711 sequences.

Regarding chain 1 A15F, the screen value is 1.59 Z-score of the enrichment rate within one screen of 711 sequences.

Take chain 1 A15C: the screen value is 1.49 Z-score of the enrichment rate within one screen of 711 sequences.

Consider chain 1 A15W, for which the screen value was 1.84 Z-score of the enrichment rate within one screen of 711 sequences.

chain 1 A15E: the screen value was 1.37 Z-score of the enrichment rate within one screen of 711 sequences.

Take chain 1 A15Q: the screen value was 1.51 Z-score of the enrichment rate within one screen of 711 sequences.

As to chain 1 P13A, chain 1 N16A, the screen value is 1.11 Z-score of the enrichment rate within one screen of 711 sequences.

Regarding chain 1 P6A, chain 1 L12A, the screen value is -0.68 Z-score of the enrichment rate within one screen of 711 sequences.

Regarding chain 1 R7A, chain 1 P8A, the screen value is -0.277 Z-score of the enrichment rate within one screen of 711 sequences.

Take chain 1 L10N: the screen value was -0.671 Z-score of the enrichment rate within one screen of 711 sequences.

As to chain 1 L10R, the screen value is -0.363 Z-score of the enrichment rate within one screen of 711 sequences.

On to chain 1 L10A, for which the screen value is -0.392 Z-score of the enrichment rate within one screen of 711 sequences.

As for chain 1 L10V, the screen value was -0.341 Z-score of the enrichment rate within one screen of 711 sequences.

Turning to chain 1 L10S, the screen value was -0.668 Z-score of the enrichment rate within one screen of 711 sequences.

In the case of chain 1 L10T, the screen value was -0.588 Z-score of the enrichment rate within one screen of 711 sequences.

chain 1 L10G: the screen value was -0.672 Z-score of the enrichment rate within one screen of 711 sequences.

For the variant chain 1 L10P, the screen value is -0.494 Z-score of the enrichment rate within one screen of 711 sequences.

In the case of chain 1 R7A, chain 1 L12A, the screen value is -0.492 Z-score of the enrichment rate within one screen of 711 sequences.

As for chain 1 R5A, chain 1 L12A, the screen value was -0.522 Z-score of the enrichment rate within one screen of 711 sequences.

As to chain 1 L12P, the screen value is -0.637 Z-score of the enrichment rate within one screen of 711 sequences.

As to chain 1 L12C, the screen value was -0.457 Z-score of the enrichment rate within one screen of 711 sequences.

chain 1 L12V: the screen value is -0.205 Z-score of the enrichment rate within one screen of 711 sequences.

In the case of chain 1 L12E, the screen value was -0.637 Z-score of the enrichment rate within one screen of 711 sequences.

chain 1 L12I: the screen value was 0.938 Z-score of the enrichment rate within one screen of 711 sequences.

Take chain 1 L12A: the screen value is -0.706 Z-score of the enrichment rate within one screen of 711 sequences.

Regarding chain 1 L12N, the screen value was -0.321 Z-score of the enrichment rate within one screen of 711 sequences.

chain 1 T9C: the screen value is 1.27 Z-score of the enrichment rate within one screen of 711 sequences.

On to chain 1 T9L, for which the screen value was 1.24 Z-score of the enrichment rate within one screen of 711 sequences.

Consider chain 1 T9E, for which the screen value was 0.507 Z-score of the enrichment rate within one screen of 711 sequences.

As to chain 1 T9M, the screen value is 1.06 Z-score of the enrichment rate within one screen of 711 sequences.

With chain 1 T9H, the screen value was 1.34 Z-score of the enrichment rate within one screen of 711 sequences.

chain 1 T9Y: the screen value was 1.15 Z-score of the enrichment rate within one screen of 711 sequences.
